In the supplement of paper PMC11246515:
± gives the standard deviation of the averaged measurements.

Test: total protein half-life in vivo (active degradation + dilution); higher = more stable protein
[1] = E. coli NCM3722 delta-clpP delta-lon delta-hslV, growth: N-lim chemostat, doubling time 6 h
[2] = E. coli NCM3722 delta-clpP, growth: N-lim chemostat, doubling time 6 h
[3] = E. coli NCM3722 delta-hslV, growth: N-lim chemostat, doubling time 6 h
[4] = E. coli NCM3722 delta-lon, growth: N-lim chemostat, doubling time 6 h
[5] = E. coli NCM3722 delta-smpB, growth: N-lim chemostat, doubling time 6 h
[6] = wild type E. coli NCM3722, growth: C-lim chemostat, doubling time 3 h
[7] = wild type E. coli NCM3722, growth: C-lim chemostat, doubling time 6 h
[8] = wild type E. coli NCM3722, growth: C-lim chemostat, doubling time 12 h
[9] = wild type E. coli NCM3722, growth: N-lim chemostat, doubling time 6 h
[10] = wild type E. coli NCM3722, growth: N-lim chemostat, doubling time 12 h
[11] = wild type E. coli NCM3722, growth: P-lim chemostat, doubling time 6 h
[12] = wild type E. coli NCM3722, growth: P-lim chemostat, doubling time 12 h

Row | Sequence | total protein half-life in vivo [1] [h] | total protein half-life in vivo [2] [h] | total protein half-life in vivo [3] [h] | total protein half-life in vivo [4] [h] | total protein half-life in vivo [5] [h] | total protein half-life in vivo [6] [h] | total protein half-life in vivo [7] [h] | total protein half-life in vivo [8] [h] | total protein half-life in vivo [9] [h] | total protein half-life in vivo [10] [h] | total protein half-life in vivo [11] [h] | total protein half-life in vivo [12] [h]
1 | MSFNTIIDWNSCTAEQQRQLLMRPAISASESITRTVNDILDNVKARGDEALREYSAKFDKTTVTALKVSAEEIAAASERLSDELKQAMAVAVKNIETFHTAQKLPPVDVETQPGVRCQQVTRPVASVGLYIPGGSAPLFSTVLMLATPASIAGCKKVVLCSPPPIADEILYAAQLCGVQDVFNVGGAQAIAALAFGTESVPKVDKIFGPGNAFVTEAKRQVSQRLDGAAIDMPAGPSEVLVIADSGATPDFVASDLLSQAEHGPDSQVILLTPAADMARRVAEAVERQLAELPRAETARQALNASRLIVTKDLAQCVEISNQYGPEHLIIQTRNARELVDSITSAGSVFLGDWSPESAGDYASGTNHVLPTYGYTATCSSLGLADFQKRMTVQELSKEGFSALASTIETLAAAERLTAHKNAVTLRVNALKEQA | 4.6 ± 0.29 | 4.43 ± 0.94 | 3.96 ± 0.073 | 4.89 ± 0.47 | 4.3 ± 0.25 | 3.3 ± 0.18 | 5.97 ± 0.23 | 10.8 ± 1.1 | 4.23 ± 0.25 | 6.67 ± 0.38 | 5.595 ± 0.053 | 11.9 ± 0.35
2 | MSSTLREASKDTLQAKDKTYHYYSLPLAAKSLGDITRLPKSLKVLLENLLRWQDGNSVTEEDIHALAGWLKNAHADREIAYRPARVLMQDFTGVPAVVDLAAMREAVKRLGGDTAKVNPLSPVDLVIDHSVTVDRFGDDEAFEENVRLEMERNHERYVFLKWGKQAFSRFSVVPPGTGICHQVNLEYLGKAVWSELQDGEWIAYPDTLVGTDSHTTMINGLGVLGWGVGGIEAEAAMLGQPVSMLIPDVVGFKLTGKLREGITATDLVLTVTQMLRKHGVVGKFVEFYGDGLDSLPLADRATIANMSPEYGATCGFFPIDAVTLDYMRLSGRSEDQVELVEKYAKAQGMWRNPGDEPIFTSTLELDMNDVEASLAGPKRPQDRVALPDVPKAFAASNELEVNATHKDRQPVDYVMNGHQYQLPDGAVVIAAITSCTNTSNPSVLMAAGLLAKKAVTLGLKRQPWVKASLAPGSKVVSDYLAKAKLTPYLDELGFNLVGYGCTTCIGNSGPLPDPIETAIKKSDLTVGAVLSGNRNFEGRIHPLVKTNWLASPPLVVAYALAGNMNINLASEPIGHDRKGDPVYLKDIWPSAQEIARAVEQVSTEMFRKEYAEVFEGTAEWKGINVTRSDTYGWQEDSTYIRLSPFFDEMQATPAPVEDIHGARILAMLGDSVTTDHISPAGSIKPDSPAGRYLQGRGVERKDFNSYGSRRGNHEVMMRGTFANIRIRNEMVPGVEGGMTRHLPDSDVVSIYDAAMRYKQEQTPLAVIAGKEYGSGSSRDWAAKGPRLLGIRVVIAESFERIHRSNLIGMGILPLEFPQGVTRKTLGLTGEEKIDIGDLQNLQPGATVPVTLTRADGSQEVVPCRCRIDTATELTYYQNDGILHYVIRNMLK | 5.26 ± 0.24 | 4.44 ± 0.1 | 4.73 ± 0.14 | 4.71 ± 0.15 | 4.362 ± 0.015 | 3.14 ± 0.26 | 5.47 ± 0.13 | 9.9 ± 0.64 | 4.65 ± 0.17 | 7.39 ± 0.19 | 5.81 ± 0.33 | 11 ± 0.17
3 | MNVVILDTGCANLNSVKSAIARHGYEPKVSRDPDVVLLADKLFLPGVGTAQAAMDQVRERELFDLIKACTQPVLGICLGMQLLGRRSEESNGVDLLGIIDEDVPKMTDFGLPLPHMGWNRVYPQAGNRLFQGIEDGAYFYFVHSYAMPVNPWTIAQCNYGEPFTAAVQKDNFYGVQFHPERSGAAGAKLLKNFLEM | 5.66 ± 1.5 | 4.08 ± 0.64 | 4.08 ± 0.044 | 4.11 ± 0.85 | 4.11 ± 0.27 | 3.16 ± 0.23 | 5.31 ± 0.46 | 10.5 ± 0.7 | 4.46 ± 0.29 | 7.8 ± 1.1 | 5.78 ± 0.17 | 11.3 ± 0.22
4 | MSNLLGPRDANGIPVPMTVDESIASMKASLLKKIKRSAYVYRVDCGGCNGCEIEIFATLSPLFDAERFGIKVVPSPRHADILLFTGAVTRAMRSPALRAWQSAPDPKICISYGACGNSGGIFHDLYCVWGGTDKIVPVDVYIPGCPPTPAATLYGFAMALGLLEQKIHARGPGELDEQPAEILHGDMVQPLRVKVDREARRLAGYRYGRQIADDYLTQLGQGEEQVARWLEAENDPRLNEIVSHLNHVVEEARIR | 5.31 | – | – | – | – | – | – | – | – | – | – | –
5 | MSENSIRLTQYSHGAGCGCKISPKVLETILHSEQAKFVDPNLLVGNETRDDAAVYDLGNGTSVISTTDFFMPIVDNPFDFGRIAATNAISDIFAMGGKPIMAIAILGWPINKLSPEIAREVTEGGRYACRQAGIALAGGHSIDAPEPIFGLAVTGIVPTERVKKNSTAQAGCKLFLTKPLGIGVLTTAEKKSLLKPEHQGLATEVMCRMNIAGASFANIEGVKAMTDVTGFGLLGHLSEMCQGAGVQARVDYEAIPKLPGVEEYIKLGAVPGGTERNFASYGHLMGEMPREVRDLLCDPQTSGGLLLAVMPEAENEVKATAAEFGIELTAIGELVPARGGRAMVEIR | 3.58 ± 0.34 | 2.94 ± 0.2 | 2.5242 ± 0.00055 | 3.85 ± 0.73 | 2.76 ± 0.077 | 3.01 ± 0.23 | 4.95 ± 0.13 | 8.899 ± 0.067 | 2.816 ± 0.0089 | 3.67 ± 0.27 | 5.34 ± 0.23 | 10.1 ± 0.65
